# Results as given in PMC7876548.
# Biological target: unmethylated D2 peptide (amino acids 208-243 of the third intracellular loop of the human D2 receptor) (human) (UniProt P14416)
# Assay: fluorescence polarisation; anisotropy; fluorescently labelled D2 peptide at 0.025 µM final, Par-4 or CaM added from 10x stocks of 0-20 µM; 200 mM NaCl, 200 µM CaCl2, 50 mM Tris pH 7.5; room temperature, ten minutes; average of four trials
# Chain of unmethylated D2 peptide (amino acids 208-243 of the third intracellular loop of the human D2 receptor) (human) (P14416 208-243): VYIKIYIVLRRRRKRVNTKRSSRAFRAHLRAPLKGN
substance,measurement,value
human Par-4 (prostate apoptosis response 4 protein) (from UniProt Q96IZ0 1-340) (natural protein),Kd,21.6 nM
